Data from patent publication US20200046641A1, “LIPOSOMES FOR THE TREATMENT OF OCULAR DISEASES” (TDC Technology Dedicated to Care srl, priority 2018, published 2020).

Tested on: inflamed eye of male albino rabbits
Test: In vivo treatment of ocular inflammation induced by arachidonic acid sodium salt
Parameters: species or system rabbit
Details: 50 μl given 30 minutes after 0.5% arachidonic acid sodium salt; scored 30-210 minutes
Experimental: Inflammation in the eye of male albino rabbits as described in Example 7 is induced by applying a drop of eye drops containing 0.5% arachidonic acid sodium salt (SA-irritating agent) at time 0. After 30 minutes, the sample under examination is administered to the inflamed eye. Finally, the ocular inflammation index is evaluated at different time points. In the present test, the samples under examination were: • I) 50 μl of free lactoferrin (not encapsulated into the lipid bilayer of liposomes) dissolved in PBS (comparative example); • II) 50 μl of F2 liposomes.
As positive control (C+-comparative), a rabbit administered with SA at time 0, without any administration after 30 minutes, has been used.
The ocular inflammation has been evaluated for each time point at 30, 60, 90, 120, 150, 180 and 210 minutes and the inflammation index has been consequently calculated for each time point according to the tables of the previous Example.

B1: lactoferrin (protein, UniProt P02788 20-710, looked up)
Lactotransferrin: GRRRSVQWCAVSQPEATKCFQWQRNMRKVRGPPVSCIKRDSPIQCIQAIAENRADAVTLDGGFIYEAGLAPYKLRPVAAEVYGTERQPRTHYYAVAVVKKGGSFQLNELQGLKSCHTGLRRTAGWNVPIGTLRPFLNWTGPPEPIEAAVARFFSASCVPGADKGQFPNLCRLCAGTGENKCAFSSQEPYFSYSGAFKCLRDGAGDVAFIRESTVFEDLSDEAERDEYELLCPDNTRKPVDKFKDCHLARVPSHAVVARSVNGKEDAIWNLLRQAQEKFGKDKSPKFQLFGSPSGQKDLLFKDSAIGFSRVPPRIDSGLYLGSGYFTAIQNLRKSEEEVAARRARVVWCAVGEQELRKCNQWSGLSEGSVTCSSASTTEDCIALVLKGEADAMSLDGGYVYTAGKCGLVPVLAENYKSQQSSDPDPNCVDRPVEGYLAVAVVRRSDTSLTWNSVKGKKSCHTAVDRTAGWNIPMGLLFNQTGSCKFDEYFSQSCAPGSDPRSNLCALCIGDEQGENKCVPNSNERYYGYTGAFRCLAENAGDVAFVKDVTVLQNTDGNNNEAWAKDLKLADFALLCLDGKRKPVTEARSCHLAMAPNHAVVSRMDKVERLKQVLLHQQAKFGRNGSDCPDKFCLFQSETKNLLFNDNTECLARLHGKTTYEKYLGPQYVAGITNLKKCSTSPLLEACEFLRK
Treatment of ocular inflammation (ocular inflammation score, FIG. 1): not obtained
